Columns and labels:
[1] = target: T1, HLA-A*02:01 presenting RABGAP1L 408-416 peptide (…) (human); experiment: flow cytometry, peptide-pulsed T2 cells
T1 construct: On peptide-pulsed T2 cells; also called T2 Pulsed RABGAP1L 408-416

[2] = target: T2, HLA-A*02:01 presenting PCDHGC3 337-345 peptide (…) (human); experiment: flow cytometry, peptide-pulsed T2 cells
T2 construct: On peptide-pulsed T2 cells; also called T2 Pulsed PCDHGC3 337-345

[3] = target: T3, HLA-A*02:01 presenting PSME2 145-153 peptide (…) (human); experiment: flow cytometry, peptide-pulsed T2 cells
T3 construct: On peptide-pulsed T2 cells; also called T2 Pulsed PSME2 145-153

[4] = target: T4, HLA-A*02:01 presenting CNOT1 1965-1973 peptide (…) (human); experiment: flow cytometry, peptide-pulsed T2 cells
T4 construct: On peptide-pulsed T2 cells; also called T2 Pulsed CNOT1 1965-1973

[5] = target: T5, HLA-A*02:01 presenting MRPL37 334-342 peptide (…) (human); experiment: flow cytometry, peptide-pulsed T2 cells
T5 construct: On peptide-pulsed T2 cells; also called T2 Pulsed MRPL37 334-342

[6] = target: T6, HLA-A*02:01 presenting PLEKHH2 790-798 peptide (…) (human); experiment: flow cytometry, peptide-pulsed T2 cells
T6 construct: On peptide-pulsed T2 cells; also called T2 Pulsed PLEKHH2 790-798

[7] = target: T7, HLA-A*02:01 presenting CARD8 170-178 peptide (…) (human); experiment: flow cytometry, peptide-pulsed T2 cells
T7 construct: On peptide-pulsed T2 cells; also called T2 Pulsed CARD8 170-178

[8] = target: T8, HLA-A*02:01 presenting SMIM11A 4-12 peptide (…) (human); experiment: flow cytometry, peptide-pulsed T2 cells
T8 construct: On peptide-pulsed T2 cells; also called T2 Pulsed SMIM11A 4-12

[9] = target: T9, HLA-A*02:01 presenting HEATR5A 1925-1933 peptide (…) (human); experiment: flow cytometry, peptide-pulsed T2 cells
T9 construct: On peptide-pulsed T2 cells

[10] = target: T10, HLA-A*02:01 presenting TEP1 2156-2164 peptide (…) (human); experiment: flow cytometry, peptide-pulsed T2 cells
T10 construct: On peptide-pulsed T2 cells; also called T2 Pulsed TEP1 2156-2164

[11] = target: T11, HLA-A*02:01 presenting NBAS 2063-2071 peptide (…) (human); experiment: flow cytometry, peptide-pulsed T2 cells
T11 construct: On peptide-pulsed T2 cells; also called T2 Pulsed NBAS 2063-2071

[12] = target: T12, HLA-A*02:01 presenting FN1 2182-2190 peptide (…) (human); experiment: flow cytometry, peptide-pulsed T2 cells
T12 construct: On peptide-pulsed T2 cells; also called T2 Pulsed FN1 2182-2190

[13] = target: T9, HLA-A*02:01 presenting HEATR5A …; experiment: cell-based or functional assay
[14] = target: T10, HLA-A*02:01 presenting TEP1 2156-2164 …; experiment: cell-based or functional assay

binding result [1]: no binding | binding result [2]: no binding | binding result [3]: no binding | binding result [4]: no binding | binding result [5]: no binding | binding result [6]: no binding | binding result [7]: no binding | binding result [8]: no binding | binding result [9]: no binding | binding result [10]: no binding | binding result [11]: no binding | binding result [12]: no binding | EC50 (M), Jurkat/NF-κB-Luc reporter with pulsed T2 cells [13]: > 2e-08 M | Fold change, Jurkat/NF-κB-Luc reporter with pulsed T2 cells [13]: 2.1 fold | EC50 (M), Jurkat/NF-κB-Luc reporter with pulsed T2 cells [14]: > 2e-08 M | Fold change, Jurkat/NF-κB-Luc reporter with pulsed T2 cells [14]: 1.9 fold
B1: bsAb6043 (bispecific antibody, V domains shown)
VH 1: QVQLVESGGGLVKPGGSLRLSCAASGFTFSEYYLTWIRQAPGKGLDWIAYISSSGYNIYYADSVKDRFTISRDNGKNSLFLQMNNLRAEDTAVYFCAREGVTDGMDVWGQGTTVTVSS
VH 2: EVQLVESGGGLVQPGRSLRLSCAASGFTFDDYSMHWVRQAPGKGLEWVSGISWNSGSKGYADSVKGRFTISRDNAKNSLYLQMNSLRAEDTALYYCAKYGSGYGKFYHYGLDVWGQGTTVTVSS
VL: DIQMTQSPSSLSASVGDRVTITCRASQSIDTFLNWYQQKPGKVPKLLIYAASNLESGVPSRFSGSGSGTVFTLTISRLQPEDFATYYCQQSYSIPPITFGQGTRVEIK
notes: Only variable regions are tied to the bispecific; also called MAGE-A4×CD3 (7221G) bispecific antibody
